Measurements: the supplement of paper PMC10567573

B1: PKD2L1 (parent)
chain: YSGGGYYLDLPGSRQGSAEALRAL

Variants of: B1
Assay: protein stability index of a GFP-peptide fusion (GPS, HEK-293T) (PSI 1-6); higher = more stable
Details: c terminus: a fixed tail appended
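Note: lentivirally expressed fusions sorted by FACS into six bins by GFP to DsRed ratio, PSI derived from sequencing read proportions per bin multiplied by bin number.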

Variant | protein stability index
YSGGGYYLDLPGSRDGSAEALRAL [Q15D] | 1.98
YSGGGYYLDLPGSRVGSAEALRAL [Q15V] | 2.99
YSGGGYYLDLPGSRYGSAEALRAL [Q15Y] | 2.17
YSGGGYYLDLPGSRAGSAEALRAL [Q15A] | 2.41
YSGGGYYLDLPGSREGSAEALRAL [Q15E] | 2.16
YSGGGYYLDLPGSRGGSAEALRAL [Q15G] | 1.47
YSGGGYYLDLPGSRSGSAEALRAL [Q15S] | 1.83
YSGGGYYLDLPGSRPGSAEALRAL [Q15P] | 2.03
YSGGGYYLDLPGSRRGSAEALRAL [Q15R] | 2.27
YSGGGYYLDLPGSRMGSAEALRAL [Q15M] | 2.81
YSGGGYYLDLPGSRLGSAEALRAL [Q15L] | 1.74
YSGGGYYLDLPGSRTGSAEALRAL [Q15T] | 1.21
YSGGGYYLDLPGSRKGSAEALRAL [Q15K] | 2.5
YSGGGYYLDLPGSRFGSAEALRAL [Q15F] | 1.61
YSGGGYYLDLPGSRHGSAEALRAL [Q15H] | 1.28
YSGGGYYLDLPGSRCGSAEALRAL [Q15C] | 3.34
YSGGGYYLDLPGSRNGSAEALRAL [Q15N] | 1.94
YSGGGYYLDLPGSRIGSAEALRAL [Q15I] | 3.59
YSGGGYYLDLPGSRWGSAEALRAL [Q15W] | 1.73
YSGGGYYLDLKGSRQGSAEALRAL [P11K] | 1.91
YSGGGYYLDLWGSRQGSAEALRAL [P11W] | 2.52
YSGGGYYLDLAGSRQGSAEALRAL [P11A] | 1.89
YSGGGYYLDLQGSRQGSAEALRAL [P11Q] | 2.53
YSGGGYYLDLRGSRQGSAEALRAL [P11R] | 3.15

Variant | protein stability index
YSGGGYYLDLFGSRQGSAEALRAL [P11F] | 2.12
YSGGGYYLDLTGSRQGSAEALRAL [P11T] | 1.86
YSGGGYYLDLDGSRQGSAEALRAL [P11D] | 1.21
YSGGGYYLDLHGSRQGSAEALRAL [P11H] | 1.44
YSGGGYYLDLCGSRQGSAEALRAL [P11C] | 1.82
YSGGGYYLDLMGSRQGSAEALRAL [P11M] | 2.68
YSGGGYYLDLGGSRQGSAEALRAL [P11G] | 3.43
YSGGGYYLDLLGSRQGSAEALRAL [P11L] | 2.54
YSGGGYYLDLYGSRQGSAEALRAL [P11Y] | 2
YSGGGYYLDLNGSRQGSAEALRAL [P11N] | 1.97
YSGGGYYLDLEGSRQGSAEALRAL [P11E] | 1.29
YSGGGYYLDLVGSRQGSAEALRAL [P11V] | 1.85
YSGGGYYLDLSGSRQGSAEALRAL [P11S] | 1.73
YSGGGYYLDLIGSRQGSAEALRAL [P11I] | 1.94
YSGGGYYLDLPGSAQGSAEALRAL [R14A] | 3.28
YSGGGYYLDLPGSTQGSAEALRAL [R14T] | 2.15
YSGGGYYLDLPGSQQGSAEALRAL [R14Q] | 1.55
YSGGGYYLDLPGSSQGSAEALRAL [R14S] | 1.57
YSGGGYYLDLPGSNQGSAEALRAL [R14N] | 1.63
YSGGGYYLDLPGSLQGSAEALRAL [R14L] | 2.71
YSGGGYYLDLPGSDQGSAEALRAL [R14D] | 1.82
YSGGGYYLDLPGSCQGSAEALRAL [R14C] | 1.55
YSGGGYYLDLPGSIQGSAEALRAL [R14I] | 2.55
YSGGGYYLDLPGSFQGSAEALRAL [R14F] | 1.32

Variant | protein stability index
YSGGGYYLDLPGSWQGSAEALRAL [R14W] | 2.36
YSGGGYYLDLPGSVQGSAEALRAL [R14V] | 1.91
YSGGGYYLDLPGSKQGSAEALRAL [R14K] | 2.56
YSGGGYYLDLPGSGQGSAEALRAL [R14G] | 2.24
YSGGGYYLDLPGSMQGSAEALRAL [R14M] | 2.08
YSGGGYYLDLPGSPQGSAEALRAL [R14P] | 1.37
YSGGGYYLDLPGSEQGSAEALRAL [R14E] | 1.75
YSGGGYYLDLPGSHQGSAEALRAL [R14H] | 1.84
YSGGGYYLDLPGSYQGSAEALRAL [R14Y] | 2
YSGGGYYLDLPGSRQGSTEALRAL [A18T] | 1.35
YSGGGYYLDLPGSRQGSSEALRAL [A18S] | 1.5
YSGGGYYLDLPGSRQGSNEALRAL [A18N] | 1.86
YSGGGYYLDLPGSRQGSREALRAL [A18R] | 1.71
YSGGGYYLDLPGSRQGSEEALRAL [A18E] | 1.71
YSGGGYYLDLPGSRQGSGEALRAL [A18G] | 1.81
YSGGGYYLDLPGSRQGSLEALRAL [A18L] | 2.12
YSGGGYYLDLPGSRQGSQEALRAL [A18Q] | 2.15
YSGGGYYLDLPGSRQGSDEALRAL [A18D] | 2.65
YSGGGYYLDLPGSRQGSVEALRAL [A18V] | 1.49
YSGGGYYLDLPGSRQGSYEALRAL [A18Y] | 1.75
YSGGGYYLDLPGSRQGSIEALRAL [A18I] | 1.55
YSGGGYYLDLPGSRQGSMEALRAL [A18M] | 1.88
YSGGGYYLDLPGSRQGSKEALRAL [A18K] | 2.75
YSGGGYYLDLPGSRQGSCEALRAL [A18C] | 2.16

Variant | protein stability index
YSGGGYYLDLPGSRQGSWEALRAL [A18W] | 1.61
YSGGGYYLDLPGSRQGSHEALRAL [A18H] | 1.61
YSGGGYYLDLPGSRQGSFEALRAL [A18F] | 1.57
YSGGGYYLDLPGSRQGSPEALRAL [A18P] | 1.79
YSGGGYYLDLPGVRQGSAEALRAL [S13V] | 2.3
YSGGGYYLDLPGERQGSAEALRAL [S13E] | 1.61
YSGGGYYLDLPGIRQGSAEALRAL [S13I] | 1.25
YSGGGYYLDLPGKRQGSAEALRAL [S13K] | 1.82
YSGGGYYLDLPGHRQGSAEALRAL [S13H] | 1.58
YSGGGYYLDLPGCRQGSAEALRAL [S13C] | 2.23
YSGGGYYLDLPGTRQGSAEALRAL [S13T] | 1.82
YSGGGYYLDLPGPRQGSAEALRAL [S13P] | 1.85
YSGGGYYLDLPGARQGSAEALRAL [S13A] | 1.45
YSGGGYYLDLPGWRQGSAEALRAL [S13W] | 1.78
YSGGGYYLDLPGDRQGSAEALRAL [S13D] | 1.12
YSGGGYYLDLPGQRQGSAEALRAL [S13Q] | 2.28
YSGGGYYLDLPGGRQGSAEALRAL [S13G] | 2.58
YSGGGYYLDLPGRRQGSAEALRAL [S13R] | 2.38
YSGGGYYLDLPGNRQGSAEALRAL [S13N] | 1.38
YSGGGYYLDLPGMRQGSAEALRAL [S13M] | 2.4
YSGGGYYLDLPGFRQGSAEALRAL [S13F] | 1.92
YSGGGYYLDLPGLRQGSAEALRAL [S13L] | 1.5
